Data on 1 molecule can be found in patent US6987169.

The target of this assay is rSK2 small conductance, calcium-activated potassium channel (rat), P70604.
Sequence of rSK2 small conductance, calcium-activated potassium channel (rat), P70604 (P70604 whole entry): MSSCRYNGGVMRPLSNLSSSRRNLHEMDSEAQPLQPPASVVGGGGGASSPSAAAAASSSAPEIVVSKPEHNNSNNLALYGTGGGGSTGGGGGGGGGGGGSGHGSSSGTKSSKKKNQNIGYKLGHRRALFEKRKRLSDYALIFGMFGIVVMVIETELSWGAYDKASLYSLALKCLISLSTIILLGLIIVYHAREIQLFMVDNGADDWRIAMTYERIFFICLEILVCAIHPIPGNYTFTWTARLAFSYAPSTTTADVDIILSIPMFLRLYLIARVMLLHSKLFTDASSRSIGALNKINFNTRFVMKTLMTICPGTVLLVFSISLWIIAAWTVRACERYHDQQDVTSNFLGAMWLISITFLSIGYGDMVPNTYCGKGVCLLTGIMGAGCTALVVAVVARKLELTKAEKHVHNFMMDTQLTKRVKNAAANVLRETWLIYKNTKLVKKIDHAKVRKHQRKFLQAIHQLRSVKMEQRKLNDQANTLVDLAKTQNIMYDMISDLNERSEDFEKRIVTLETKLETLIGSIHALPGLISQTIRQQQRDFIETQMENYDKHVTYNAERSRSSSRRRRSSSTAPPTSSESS

With CNCKAPETALCARRCQQH (modifications not checked) [apamin, P01500 28-45], the Kd (in general, a measure of binding affinity in units of concentration) was found to be 63 µM.
